Laboratory results reported in patent publication US10676749.

Key:
Test in all cases: cell_activity
[1] = test system: TALE-VP64 VEGF4-5 (synthetic); conditions: VEGF-A ELISA, 293 cells
[2] = test system: TALE-VP64 VEGF4-6 (synthetic); conditions: VEGF-A ELISA, 293 cells
[3] = test system: TALE-VP64 VEGF2-1 (synthetic); conditions: VEGF-A ELISA, 293 cells
[4] = test system: TALE-VP64 VEGF2-2 (synthetic); conditions: VEGF-A ELISA, 293 cells
[5] = test system: TALE-VP64 VEGF2-3 (synthetic); conditions: VEGF-A ELISA, 293 cells
[6] = test system: TALE-VP64 VEGF2-4 (synthetic); conditions: VEGF-A ELISA, 293 cells
[7] = test system: TALE-VP64 VEGF2-5 (synthetic); conditions: VEGF-A ELISA, 293 cells
[8] = test system: TALE-VP64 VEGF2-6 (synthetic); conditions: VEGF-A ELISA, 293 cells
[9] = test system: TALE-VP64 Ntf3-5 (synthetic); conditions: NTF3 qRT-PCR, 293 cells
[10] = test system: TALE-VP64 Ntf3-2 (synthetic); conditions: NTF3 qRT-PCR, 293 cells
[11] = test system: TALE-VP64 VEGF7-2 (synthetic); conditions: VEGF-A ELISA, 293 cells
[12] = test system: TALE-VP64 VEGF7-3 (synthetic); conditions: VEGF-A ELISA, 293 cells
[13] = test system: TALE-VP64 VEGF7-4 (synthetic); conditions: VEGF-A ELISA, 293 cells
[14] = test system: TALE-VP64 VEGF7-5 (synthetic); conditions: VEGF-A ELISA, 293 cells
[15] = test system: TALE-VP64 VEGF7-6 (synthetic); conditions: VEGF-A ELISA, 293 cells
[16] = test system: TALE-VP64 VEGF5-1 (synthetic); conditions: VEGF-A ELISA, 293 cells
[17] = test system: TALE-VP64 VEGF5-2 (synthetic); conditions: VEGF-A ELISA, 293 cells
[18] = test system: TALE-VP64 VEGF5-3 (synthetic); conditions: VEGF-A ELISA, 293 cells
[19] = test system: TALE-VP64 VEGF5-4 (synthetic); conditions: VEGF-A ELISA, 293 cells
[20] = test system: TALE-VP64 VEGF5-5 (synthetic); conditions: VEGF-A ELISA, 293 cells
[21] = test system: TALE-VP64 VEGF5-6 (synthetic); conditions: VEGF-A ELISA, 293 cells
[22] = test system: TALE-VP64 Ntf3-3 (synthetic); conditions: NTF3 qRT-PCR, 293 cells
[23] = test system: TALE-VP64 Ntf3-1 (synthetic); conditions: NTF3 qRT-PCR, 293 cells; weakest about 1000-fold
[24] = test system: TALE-VP64 VEGF1-1 (synthetic); conditions: VEGF-A ELISA, 293 cells; range 5.3-114 over 53 active TALEs
[25] = test system: TALE-VP64 VEGF1-2 (synthetic); conditions: VEGF-A ELISA, 293 cells
[26] = test system: TALE-VP64 VEGF1-3 (synthetic); conditions: VEGF-A ELISA, 293 cells
[27] = test system: TALE-VP64 VEGF1-4 (synthetic); conditions: VEGF-A ELISA, 293 cells; site printed with S at position 6
[28] = test system: TALE-VP64 VEGF1-5 (synthetic); conditions: VEGF-A ELISA, 293 cells
[29] = test system: TALE-VP64 VEGF1-6 (synthetic); conditions: VEGF-A ELISA, 293 cells

## TCCCCGGCCGGCGGCGGACAGTGG (double strand) [VEGF4-5 site]
[1]
  activity (fold activation): > 5.3

## TCCCCGGCCGGCGGCGGACAGTGGAC (double strand) [VEGF4-6 site]
[2]
  activity (fold activation): > 5.3

## TCCCGCAGCTGACCAG (double strand) [VEGF2-1 site]
[3]
  activity (fold activation): > 5.3

## TCCCGCAGCTGACCAGTC (double strand) [VEGF2-2 site]
[4]
  activity (fold activation): > 5.3

## TCCCGCAGCTGACCAGTCGC (double strand) [VEGF2-3 site]
[5]
  activity (fold activation): > 5.3

## TCCCGCAGCTGACCAGTCGCGC (double strand) [VEGF2-4 site]
[6]
  activity (fold activation): > 5.3

## TCCCGCAGCTGACCAGTCGCGCTG (double strand) [VEGF2-5 site]
[7]
  activity (fold activation): > 5.3

## TCCCGCAGCTGACCAGTCGCGCTGAC (double strand) [VEGF2-6 site]
[8]
  activity (fold activation): > 5.3

## TCCCTCAATCTGGGAAAG (double strand) [Ntf3-5 site]
[9]
  activity (fold activation (approx)): > 1000

## TCCGAACAGCTCCGCGCA (double strand) [Ntf3-2 site]
[10]
  activity (fold activation (approx)): > 1000

## TCCGTCAGCGCGACTGGT (double strand) [VEGF7-2 site]
[11]
  activity (fold activation): > 5.3

## TCCGTCAGCGCGACTGGTCA (double strand) [VEGF7-3 site]
[12]
  activity (fold activation): > 5.3

## TCCGTCAGCGCGACTGGTCAGC (double strand) [VEGF7-4 site]
[13]
  activity (fold activation): > 5.3

## TCCGTCAGCGCGACTGGTCAGCTG (double strand) [VEGF7-5 site]
[14]
  activity (fold activation): > 5.3

## TCCGTCAGCGCGACTGGTCAGCTGCG (double strand) [VEGF7-6 site]
[15]
  activity (fold activation): > 5.3

## TGGACGCGGCGGCGAG (double strand) [VEGF5-1 site]
[16]
  activity (fold activation): > 5.3

## TGGACGCGGCGGCGAGCC (double strand) [VEGF5-2 site]
[17]
  activity (fold activation): > 5.3

## TGGACGCGGCGGCGAGCCGC (double strand) [VEGF5-3 site]
[18]
  activity (fold activation): > 5.3

## TGGACGCGGCGGCGAGCCGCGG (double strand) [VEGF5-4 site]
[19]
  activity (fold activation): > 5.3

## TGGACGCGGCGGCGAGCCGCGGGC (double strand) [VEGF5-5 site]
[20]
  activity (fold activation): > 5.3

## TGGACGCGGCGGCGAGCCGCGGGCAG (double strand) [VEGF5-6 site]
[21]
  activity (fold activation): > 5.3

## TTCCCCTGCTGGGTAGTG (double strand) [Ntf3-3 site]
[22]
  activity (fold activation (approx)): > 1000

## TTCTGTTCACGGGACTCA (double strand) [Ntf3-1 site]
[23]
  activity (fold activation (approx)): > 1000

## TTGGGGGTGACCGCCG (double strand) [VEGF1-1 site]
[24]
  activity (fold activation): > 5.3

## TTGGGGGTGACCGCCGGA (double strand) [VEGF1-2 site]
[25]
  activity (fold activation): > 5.3

## TTGGGGGTGACCGCCGGAGC (double strand) [VEGF1-3 site]
[26]
  activity (fold activation): > 5.3

## TTGGGGGTGACCGCCGGAGCGC (double strand) [VEGF1-4 site]
[27]
  activity (fold activation): > 5.3

## TTGGGGGTGACCGCCGGAGCGCGG (double strand) [VEGF1-5 site]
[28]
  activity (fold activation): > 5.3

## TTGGGGGTGACCGCCGGAGCGCGGCG (double strand) [VEGF1-6 site]
[29]
  activity (fold activation): > 5.3
